# Assay results from US20250243277A1 (AVACTA LIFE SCIENCES, published 2025).
# Target: T1, human PD-L1-Fc (R&D Systems) (human, UniProt Q9NZQ7 19-239)
# T1 construct: Bought from R&D Systems; Biotinylated in-house for the phage selection; also called huPD-L1-Fc; human PD-L1-Fc antigen; not shown: Fc part of the bought fusion
# Experiment: soluble Affimer ELISA
# T1 sequence (Q9NZQ7 19-239 limits assumed): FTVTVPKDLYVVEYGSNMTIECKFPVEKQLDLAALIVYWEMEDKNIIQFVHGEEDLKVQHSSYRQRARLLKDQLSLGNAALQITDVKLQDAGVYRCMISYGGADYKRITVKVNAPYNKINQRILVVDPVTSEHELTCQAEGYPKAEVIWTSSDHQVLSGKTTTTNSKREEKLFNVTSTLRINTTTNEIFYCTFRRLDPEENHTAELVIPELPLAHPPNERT
row,Binder,binding result
1,"Clone 45 (designed binder, His-tagged) MIPGGLSEAKPATPEIQEIVDKVKPQLEEKTGETYGKLEAVQYKTQVVREYPHFQGYGTNYYIKVRAGDNKYMHLKVFKSLILNAGGIRWEDLVLTGYQVDKNKDDELTGF",binds
2,"Clone 53 (designed binder, His-tagged) MIPGGLSEAKPATPEIQEIVDKVKPQLEEKTGETYGKLEAVQYKTQVVAWDWLPAYRGTNYYIKVRAGDNKYMHLKVFKSLFKFQNESFAEDLVLTGYQVDKNKDDELTGF",binds
3,"Clone 31 (designed binder, His-tagged) MIPGGLSEAKPATPEIQEIVDKVKPQLEEKTGETYGKLEAVQYKTQVVAQDLSAFQIGTNYYIKVRAGDNKYMHLKVFKSLIFAPLKPWREDLVLTGYQVDKNKDDELTGF",binds
4,"Clone 241 (designed binder, His-tagged) MIPGGLSEAKPATPEIQEIVDKVKPQLEEKTGETYGKLEAVQYKTQVVSRLHFPNFQGTNYYIKVRAGDNKYMHLKVFKSLNLEHPTDETEDLVLTGYQVDKNKDDELTGF",binds
5,"Clone 250 (designed binder, His-tagged) MIPGGLSEAKPATPEIQEIVDKVKPQLEEKTGETYGKLEAVQYKTQVVRDPDVFVFSGTNYYIKVRAGDNKYMHLKVFKSLWYYNDNQSGEDLVLTGYQVDKNKDDELTGF",binds
6,"Clone 28 (designed binder, His-tagged) MIPGGLSEAKPATPEIQEIVDKVKPQLEEKTGETYGKLEAVQYKTQVVAAFSVHPSSGTNYYIKVRAGDNKYMHLKVFKSLEKYHNIWYVEDLVLTGYQVDKNKDDELTGF",binds
7,"Clone 239 (designed binder, His-tagged) MIPGGLSEAKPATPEIQEIVDKVKPQLEEKTGETYGKLEAVQYKTQVVLTIPPTAFSGTNYYIKVRAGDNKYMHLKVFKSLGWNLHEVALEDLVLTGYQVDKNKDDELTGF",binds
8,"Clone 243 (designed binder, His-tagged) MIPGGLSEAKPATPEIQEIVDKVKPQLEEKTGETYGKLEAVQYKTQVVWKQITLPVDGTNYYIKVRAGDNKYMHLKVFKSLHWDEYEYDEEDLVLTGYQVDKNKDDELTGF",binds
9,"Clone 44 (designed binder, His-tagged) MIPGGLSEAKPATPEIQEIVDKVKPQLEEKTGETYGKLEAVQYKTQVVRTKETKKSWGTNYYIKVRAGDNKYMHLKVFKSLQKIHAIFYVEDLVLTGYQVDKNKDDELTGF",binds
10,"Clone 41 (designed binder, His-tagged) MIPGGLSEAKPATPEIQEIVDKVKPQLEEKTGETYGKLEAVQYKTQVVGTRDEWHWVGTNYYIKVRAGDNKYMHLKVFKSLFVKDDGRVDEDLVLTGYQVDKNKDDELTGF",binds
11,"Clone 4 (designed binder, His-tagged) MIPGGLSEAKPATPEIQEIVDKVKPQLEEKTGETYGKLEAVQYKTQVVFQTWDHAWTGTNYYIKVRAGDNKYMHLKVFKSLFAAETQQYYEDLVLTGYQVDKNKDDELTGF",binds
12,"Clone 51 (designed binder, His-tagged) MIPGGLSEAKPATPEIQEIVDKVKPQLEEKTGETYGKLEAVQYKTQVVSHHASPSHIGTNYYIKVRAGDNKYMHLKVFKSLTTDPNWDVHEDLVLTGYQVDKNKDDELTGF",binds
13,"Clone 39 (designed binder, His-tagged) MIPGGLSEAKPATPEIQEIVDKVKPQLEEKTGETYGKLEAVQYKTQVVEIRPVWDWSGTNYYIKVRAGDNKYMHLKVFKSLFDHESKPTAEDLVLTGYQVDKNKDDELTGF",binds
14,"Clone 237 (designed binder, His-tagged) MIPGGLSEAKPATPEIQEIVDKVKPQLEEKTGETYGKLEAVQYKTQVVVAGLKWHWEGTNYYIKVRAGDNKYMHLKVFKSLIYASQYDYREDLVLTGYQVDKNKDDELTGF",binds
15,"Clone 35 (designed binder, His-tagged) MIPGGLSEAKPATPEIQEIVDKVKPQLEEKTGETYGKLEAVQYKTQVVKYETHFYYEGTNYYIKVRAGDNKYMHLKVFKSLPKRWAYNAYEDLVLTGYQVDKNKDDELTGF",binds
16,"Clone 252 (designed binder, His-tagged) MIPGGLSEAKPATPEIQEIVDKVKPQLEEKTGETYGKLEAVQYKTQVVAVRPIFKWAGTNYYIKVRAGDNKYMHLKVFKSLFHGPLDNYTEDLVLTGYQVDKNKDDELTGF",binds
17,"Clone 37 (designed binder, His-tagged) MIPGGLSEAKPATPEIQEIVDKVKPQLEEKTGETYGKLEAVQYKTQVVHHFAEVKWYGTNYYIKVRAGDNKYMHLKVFKSLKITGSTLTFEDLVLTGYQVDKNKDDELTGF",binds
18,"Clone 27 (designed binder, His-tagged) MIPGGLSEAKPATPEIQEIVDKVKPQLEEKTGETYGKLEAVQYKTQVVDVKPKWQWTGTNYYIKVRAGDNKYMHLKVFKSLFEGEDRDAVEDLVLTGYQVDKNKDDELTGF",binds

row,Binder,binding result
1,"Clone 244 (designed binder, His-tagged) MIPGGLSEAKPATPEIQEIVDKVKPQLEEKTGETYGKLEAVQYKTQVVWDSEALPIDGTNYYIKVRAGDNKYMHLKVFKSLRWWPWDAVGEDLVLTGYQVDKNKDDELTGF",binds
2,"Clone 248 (designed binder, His-tagged) MIPGGLSEAKPATPEIQEIVDKVKPQLEEKTGETYGKLEAVQYKTQVVLQLPPRPHDGTNYYIKVRAGDNKYMHLKVFKSLNWEPAQHPVEDLVLTGYQVDKNKDDELTGF",binds
3,"Clone 242 (designed binder, His-tagged) MIPGGLSEAKPATPEIQEIVDKVKPQLEEKTGETYGKLEAVQYKTQVVVEWSESGYDGTNYYIKVRAGDNKYMHLKVFKSLRLKSNVNIAEDLVLTGYQVDKNKDDELTGF",binds
4,"Clone 50 (designed binder, His-tagged) MIPGGLSEAKPATPEIQEIVDKVKPQLEEKTGETYGKLEAVQYKTQVVGRQVKWAWTGTNYYIKVRAGDNKYMHLKVFKSLFKQHHNISEEDLVLTGYQVDKNKDDELTGF",binds
5,"Clone 5 (designed binder, His-tagged) MIPGGLSEAKPATPEIQEIVDKVKPQLEEKTGETYGKLEAVQYKTQVVFLDWKQHWRGTNYYIKVRAGDNKYMHLKVFKSLFNDKHNSTEDLVLTGYQVDKNKDDELTGF",binds
6,"Clone 43 (designed binder, His-tagged) MIPGGLSEAKPATPEIQEIVDKVKPQLEEKTGETYGKLEAVQYKTQVVVQHPQWHWKGTNYYIKVRAGDNKYMHLKVFKSLVQQRDVWINEDLVLTGYQVDKNKDDELTGF",binds
7,"Clone 245 (designed binder, His-tagged) MIPGGLSEAKPATPEIQEIVDKVKPQLEEKTGETYGKLEAVQYKTQVVGYLELWKWSGTNYYIKVRAGDNKYMHLKVFKSLYNLHHPHKDEDLVLTGYQVDKNKDDELTGF",binds
8,"Clone 238 (designed binder, His-tagged) MIPGGLSEAKPATPEIQEIVDKVKPQLEEKTGETYGKLEAVQYKTQVVRHKGLWQFEGTNYYIKVRAGDNKYMHLKVFKSLSHQPYRATIEDLVLTGYQVDKNKDDELTGF",binds
9,"Clone 42 (designed binder, His-tagged) MIPGGLSEAKPATPEIQEIVDKVKPQLEEKTGETYGKLEAVQYKTQVVIQHIWWDFVGTNYYIKVRAGDNKYMHLKVFKSLSRLEPAGHQEDLVLTGYQVDKNKDDELTGF",binds
10,"Clone 33 (designed binder, His-tagged) MIPGGLSEAKPATPEIQEIVDKVKPQLEEKTGETYGKLEAVQYKTQVVNQPQPPWIRGTNYYIKVRAGDNKYMHLKVFKSLNWNSPNLTWEDLVLTGYQVDKNKDDELTGF",binds
11,"Clone 25 (designed binder, His-tagged) MIPGGLSEAKPATPEIQEIVDKVKPQLEEKTGETYGKLEAVQYKTQVVVRHPRWFFIGTNYYIKVRAGDNKYMHLKVFKSLKKHGDEVTLEDLVLTGYQVDKNKDDELTGF",binds
12,"Clone 46 (designed binder, His-tagged) MIPGGLSEAKPATPEIQEIVDKVKPQLEEKTGETYGKLEAVQYKTQVVVQHSLWYFQGTNYYIKVRAGDNKYMHLKVFKSLFKHPEENPVEDLVLTGYQVDKNKDDELTGF",binds
13,"Clone 234 (designed binder, His-tagged) MIPGGLSEAKPATPEIQEIVDKVKPQLEEKTGETYGKLEAVQYKTQVVRNSGVWEFEGTNYYIKVRAGDNKYMHLKVFKSLGKYKTNWYFEDLVLTGYQVDKNKDDELTGF",binds
14,"Clone 249 (designed binder, His-tagged) MIPGGLSEAKPATPEIQEIVDKVKPQLEEKTGETYGKLEAVQYKTQVVIYYPIWGFQGTNYYIKVRAGDNKYMHLKVFKSLRWSKDGATAEDLVLTGYQVDKNKDDELTGF",binds
15,"Clone 55 (designed binder, His-tagged) MIPGGLSEAKPATPEIQEIVDKVKPQLEEKTGETYGKLEAVQYKTQVVAGWSLPPHLGTNYYIKVRAGDNKYMHLKVFKSLINHAGQKSDEDLVLTGYQVDKNKDDELTGF",binds
16,"Clone 235 (designed binder, His-tagged) MIPGGLSEAKPATPEIQEIVDKVKPQLEEKTGETYGKLEAVQYKTQVVWNPPSLPISGTNYYIKVRAGDNKYMHLKVFKSLAWDNTAKHGEDLVLTGYQVDKNKDDELTGF",binds
17,"Clone 47 (designed binder, His-tagged) MIPGGLSEAKPATPEIQEIVDKVKPQLEEKTGETYGKLEAVQYKTQVVGVKQTWNWNGTNYYIKVRAGDNKYMHLKVFKSLFGLNDDEPVEDLVLTGYQVDKNKDDELTGF",binds
